Data from US20240358834A1 (University of Pennsylvania, published 2024).

B1: scFv 5 (scFv)
scFv: QPVLTQPPSVSGSLGQRVTISCSGSTNTIGVVGANWYQQLPGKSPKLLVYSDGVRPSGVPDRFSGSRSANSDTLTITGLQAEDEADYYCQSFDSTHNAIVFGGGTHLTVLGGGSSRSSSSGGGGSGGGGEVQLVETGGDLVKPAGSLRLSCAASGFPFSGYSMTWVRQAPEKGLQLVAGINSDGSHTYYTDDVKGRFTISRDNTKYILYLQMNSLRAEDTAMYYCGSHSWGNFHYWGQGTLVTVSSESPSPPNLTSGQAGQHHHHHHGAYPYDVPDYAS
notes: Canine scFv (VL-linker-VH); also called scFv_05; P3-14
B2: scFv 43 (scFv)
scFv: DIVMTQNPLSLAVTPGELATISCRASQSLLHSDGKSYLNWYLQKPGQTPRPLIYEASRRFSGVSDRFNGSGSGTDFTLKISRVEAEDVGVYYCQQGLHFPPTFGAGTKVELKGGSSRSSSSGGGGSGGGGEVQLVESGGDLVKPGGSLRLSCAASGFTFTDYDMSWVRQAPGKGLQWVAAISYDGSSTYYTDAVKGRFTISRDNARNTLYLQMSSLRAEDTAMYYCVVSNMNLWGHGTSVFVSSASTTAPSVTSGQAGQHHHHHHGAYPYDVPDYAS
notes: Canine scFv (VL-linker-VH); also called P3-02; P3-19
B3: scFv 4 (scFv)
scFv: QSVLNQPPSVSGALGQTVTISCSGSHTNIGSGFDVQWYQQLPGKSPQTIIYANINRPSGVPARFSGSKSGSTATLTITGVQAEDEADYYCQSYDDNFDYVFGSGTQLTVLGGGSSRSSSSGGGGSGGGGEEQLVEFGGDLVKPGGSLRLSCVVSGFDFSRYGMSWVRQSPGKGLQWVADISYRGTTFYADDVKGRFTVSRDSAKNTLYLEMTSLTVEDTAVYYCANSANWYVSPFDHWGQGTLVTVSSASTTAPSVTSGQAGQHHHHHHGAYPYDVPDYAS
notes: Canine scFv (VL-linker-VH); also called scFv_04; P3-06
B4: scFv 39 (scFv)
scFv: QSVLTQPPSVSGSPGQRVTISCSGTTKNIGIVGASWYQQLPGKAPKLLVHSDGFRPSGVPDRFSASNSGDSDILTITGLQAEDEADYYCQSFDTTLDAHVFGSGTQLTVLGGGSSRSSSSGGGGSGGGGEVPLVESGGDLVKPGGSLRLSCVASGFTFSSYGMSWVRQSPGKGLQWVAGITYDGSNTYYTDTVRGRFTISRDNARNTVYLQMNSLRAEDTAVYYCVASPLYGTYGFDYWGHGTSVFVSSASTTAPSVTSGQAGQHHHHHHGAYPYDVPDYAS
notes: Canine scFv (VL-linker-VH); also called P3-29
B5: scFv 40 (scFv)
scFv: QSVLTQPPSVSGSLGQKVTISCTGSSSSVGTHYVGWYQIPPGIGPRTVIYNNDYRPSGVPDRFSGSKSGNSATLTISGLQAEDEADYYCSSWDDSLGAYVLGSGTQLTILGGGSSRSSSSGGGGSGGGGELTLQESGPGLVKPSQTLSLTCAVSGGSVIRGYYWTWIRQRPGRGLEWMGYWAGSTDYNPAFQGRIFITAGTAKNQFSLEMTSMTTDDTAIYYCVGSLRGGWLFDNWGQGTLVTVSSASTTAPSVTSGQAGQHHHHHHGAYPYDVPDYAS
notes: Canine scFv (VL-linker-VH); also called P3-59B
B6: scFv 8 (scFv)
scFv: QSVLTQPASVSGSLGQKVTISCTGSRSNIGANYVGWYQQVPGIGPRTVIFGYNYRPSGVPDRFSSSKSGNSATLTISGLQAEDEAEYYCSSWDDSLRGTVFGSGTQLTVLGGGSSRSSSSGDGGSGGGGEVQLVESGGDLVKPGESLRLSCVASGFTFSSYGMSWVRQSPGKGLQWVADISYGGGTYYADAVKGRFTISRDNARNTVYLQMNSLRAEDTAVYYCASQWGDWGHFEYWGQGTLVTVSSASTTAPSVTSGQAGQHHHHHHGAYPYDVPDYAS
notes: Canine scFv (VL-linker-VH); also called scFv_08; P3-16
B7: scFv 37 (scFv)
scFv: SSVLTQPPSVSVSLGQTATISCSGESLNDYYAQWFQQKAGQVPVLVIYRDTERPSGIPDRFSGSSSGNTHTLTISGARAEDEADYYCESEVSAGGAVFGEGTHLTVLGGGSSRSSSSGGGGSGGGGEVQLVETGGDLVKPGGSLRLSCVASGFTLRDYSMTWVRQTPEKGLQLVAGISTGGSTTYYIDAVKGRFTISRDNAKNTVYLQMNSLRAEDTAMYHCTTTALGYWGQGTLVTVSSASTTTPSVTSGQAGQHHHHHHGAYPYDVPDYAS
notes: Canine scFv (VL-linker-VH); also called P3-27
B8: scFv 38 (scFv)
scFv: SSVLTQPPSVSVSLGQTATISCSGESLSEYYAQWFQQKAGQAPVLVIYKDTERPSGIPDRFSGSSSGNTHTLTISGARAEDEADYYCASADSSAIPVFGGGTHLTVLGGGSSRSSSSGGGGSGGGGEVQLVESGGDLVKPGGSLRLSCVASGFNFGNYAVSWVRQAPGKGLQWVAGISNDGTITGYTDVVEGRFIISRDNAKNTLYLQMNSLRAEDMAIYYCVAGGFLDYWGQGTLVTVSSASTTAPSVTSGQAGQHHHHHHGAYPYDVPDYAS
notes: Canine scFv (VL-linker-VH); also called P3-17
B9: scFv 36 (scFv)
scFv: QSVLTQPTSVSGSLGQRVTISCSGSTNNIGIVGASWYQQLPGKAPKLLVYSDGDRPSGVPDRFSGSNSGNSDTLTITGLQAEDEADYYCQSFDTTLDAYVFGSGTQLTVLGGGSSRSSSSGGGGSGGGGEEQLVEFGGGLVRPGGSLRLSCVASGFTFSSYGMTWVRQSPGKGLQWVATISDTGSTYYADTVKGRFSISRDNAKNTLYLQMNSLRADDTALYYCTKDLGVWGMDNWGPGTSLFVSSASTTAPSVTSGQAGQHHHHHHGAYPYDVPDYAS
notes: Canine scFv (VL-linker-VH); also called P3-25
B10: scFv 41 (scFv)
scFv: QPVLTQPPSVSVSLGQTATISCSGESLSKYYAQWFQQKAGQAPVLVIYKDTERPSGIPDRFSGSSSGNTHTLTISGARAEDEADYYCESAVSTETVVFGGGTHLTVLGGGSSRSSSSGGGGSGGGGEVQLVETGGDLVMPAGSLRLSCVASGFTFSSSVMSWVRQAPGKGLEWVAGINGGGSFAAYGDAVKGRFTISRDNAKNTLYLQMNSLRAEDTAMYYCVGGGYMDFWGPGTSLFVSSESPSPPNLTSGQAGQHHHHHHGAYPYDVPDYAS
notes: Canine scFv (VL-linker-VH); also called P3-08A; P3-08B
B11: scFv 35 (scFv)
scFv: SSVLTQPPSVSVSLGQTATISCSGESLSEYYAQWFQQKAGQAPVLVIYKDTERASGIPDRFSGSSSGNTHTLTISGARAEDEADYYCESAVNSDGIVFGGGTHLTVLGGGSSRSSSSGGGGSGGGGEVQLVESGGDLVKPAGSLRLSCVTSGFTFSSYAMSWVRQAPGKGLQWVGSINSGGSTTSYADAVKGRFTISRDNAKNTVYLQMNSLRAEDTAVYYCARWWDFEYWGQGTLVTVSSESPSPPNLTSGQAGQHHHHHHGAYPYDVPDYAS
notes: Canine scFv (VL-linker-VH); also called P4-08
B12: scFv 7 (scFv)
scFv: SYELTQPPSMSAALGQRVTISCTGSNTNIGSGYDVQWYQQVPGKSPTPLIYGNTNRPSGVPVRFSGSKSGNTATLTITGIQAEDEADYYCQSYDDNFDGHHVFGSGTQLTVLGGGSSRSSSSGGGGSGGGGEVQLVESGGDLVKPAGSLRLSCVASGFTFSNYGMNWVRQAPGKGLQWVAGINSGGSTTTYADVVKGRFTISRDNAKNTLYLQMNSLGAEDTAVYYCARVDYSSSWLVDYWGQGTLVTVSSASTTAPSVTSGQAGQHHHHHHGAYPYDVPDYAS
notes: Canine scFv (VL-linker-VH); also called scFv_07; P3-47
B13: scFv 42 (scFv)
scFv: QSVLTQPTSVSGSLGQRVTISCSGSTNDIGIIGAAWYQQLPGKAPKLLLYSNKNRPSGVPDRFSGSNSGISATLTITGLQAEDEADYYCQSVDPALHTYVFGSGTQLTILGGGSSRSSSSGGGGSGGGGEVQLVEIGGDLVKPEGSLRLSCVVSGFTFSGYDMNWVRQAPGKGLQWVAYISSDGRRTVYTDAVKGRFTISRDNAKNTLYLQMNSLKSEDTAVYYCVKGGWLDFWGQGTLVTVSSESPSPPNLTSGQAGQHHHHHHGAYPYDVPDYAS
notes: Canine scFv (VL-linker-VH); also called P3-13

Biological target: T1, human CD19 protein with a biotinylated AviTag (Acrobiosystems) (human, UniProt P15391 20-291, biotinylated AviTag)
T1 construct: Captured on streptavidin-coated microplate wells; also called biotinylated-AviTag-CD19; hCD19; not shown: AviTag
T1 sequence (looked up): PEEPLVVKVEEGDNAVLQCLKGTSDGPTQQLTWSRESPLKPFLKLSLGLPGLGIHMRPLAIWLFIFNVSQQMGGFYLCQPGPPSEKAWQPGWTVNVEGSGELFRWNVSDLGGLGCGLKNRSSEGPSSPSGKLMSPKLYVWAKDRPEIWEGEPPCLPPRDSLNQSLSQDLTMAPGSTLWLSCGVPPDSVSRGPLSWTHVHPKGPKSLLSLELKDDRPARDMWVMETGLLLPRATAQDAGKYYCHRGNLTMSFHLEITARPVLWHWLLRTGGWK
Assay: phage ELISA, biotinylated AviTag CD19 on streptavidin wells; signal ratio to FMC63 standard
Text: To identify unique human CD19-binding monoclonal scFv from the panned libraries, individual phage antibody clones were expanded, assessed for binding to CD19 by ELISA, and subjected to nucleotide sequencing to identify those clones that were unique. A total of 84 scFvs were randomly selected from the panned libraries (70 from P3 and 14 from P4).

Compared with B1, B2 is higher in “ELISA hCD19 (ratio FMC63)” value: 0.48 ratio to FMC63 for the first, 0.57 ratio to FMC63 for the second.

Compared with B3, B4 is lower in “ELISA hCD19 (ratio FMC63)” value: 0.77 ratio to FMC63 for the first, 0.19 ratio to FMC63 for the second.

Compared with B5, B6 is higher in “ELISA hCD19 (ratio FMC63)” value: 0.14 ratio to FMC63 for the first, 0.41 ratio to FMC63 for the second.

First: B7
Second: B8
The “ELISA hCD19 (ratio FMC63)” value of the first is lower: 0.1 ratio to FMC63 for the first, 0.64 ratio to FMC63 for the second.

First: B9
Second: B10
The “ELISA hCD19 (ratio FMC63)” value of the first is higher: 0.6 ratio to FMC63 for the first, 0.47 ratio to FMC63 for the second.

Compared with B11, B12 is higher in “ELISA hCD19 (ratio FMC63)” value: 0.23 ratio to FMC63 for the first, 0.83 ratio to FMC63 for the second.

For B13, the “ELISA hCD19 (ratio FMC63)” value was 0.14 ratio to FMC63.
